Experimental data from IntAct's records for PubMed 18354482.

B1: RE1-silencing transcription factor (Homo sapiens), Q13127 (parent)
chain: MATQVMGQSSGGGGLFTSSGNIGMALPNDMYDLHDLSKAELAAPQLIMLANVALTGEVNGSCCDYLVGEERQMAELMPVGDNNFSDSEEGEGLEESADIKGEPHGLENMELRSLELSVVEPQPVFEASGAPDIYSSNKDLPPETPGAEDKGKSSKTKPFRCKPCQYEAESEEQFVHHIRVHSAKKFFVEESAEKQAKARESGSSTAEEGDFSKGPIRCDRCGYNTNRYDHYTAHLKHHTRAGDNERVYKCIICTYTTVSEYHWRKHLRNHFPRKVYTCGKCNYFSDRKNNYVQHVRTHTGERPYKCELCPYSSSQKTHLTRHMRTHSGEKPFKCDQCSYVASNQHEVTRHARQVHNGPKPLNCPHCDYKTADRSNFKKHVELHVNPRQFNCPVCDYAASKKCNLQYHFKSKHPTCPNKTMDVSKVKLKKTKKREADLPDNITNEKTEIEQTKIKGDVAGKKNEKSVKAEKRDVSKEKKPSNNVSVIQVTTRTRKSVTEVKEMDVHTGSNSEKFSKTKKSKRKLEVDSHSLHGPVNDEESSTKKKKKVESKSKNNSQEVPKGDSKVEENKKQNTCMKKSTKKKTLKNKSSKKSSKPPQKEPVEKGSAQMDPPQMGPAPTEAVQKGPVQVEPPPPMEHAQMEGAQIRPAPDEPVQMEVVQEGPAQKELLPPVEPAQMVGAQIVLAHMELPPPMETAQTEVAQMGPAPMEPAQMEVAQVESAPMQVVQKEPVQMELSPPMEVVQKEPVQIELSPPMEVVQKEPVKIELSPPIEVVQKEPVQMELSPPMGVVQKEPAQREPPPPREPPLHMEPISKKPPLRKDKKEKSNMQSERARKEQVLIEVGLVPVKDSWLLKESVSTEDLSPPSPPLPKENLREEASGDQKLLNTGEGNKEAPLQKVGAEEADESLPGLAANINESTHISSSGQNLNTPEGETLNGKHQTDSIVCEMKMDTDQNTRENLTGINSTVEEPVSPMLPPSAVEEREAVSKTALASPPATMAANESQEIDEDEGIHSHEGSDLSDNMSEGSDDSGLHGARPVPQESSRKNAKEALAVKAAKGDFVCIFCDRSFRKGKDYSKHLNRHLVNVYYLEEAAQGQE

Variants of: B1
Settings: with fbw1a_human BTRC

Effect of a mutation on the interaction, disrupting interaction strength:
E1009A
E1009A;S1013A
S1013A
